For 4 proteins, Km results are on record in article doi:10.1101/2021.07.08.451529v1.

Substrate in data set [1]: O=C(O)CC(=O)C(=O)O
The data set can be described thus: purified protein. Particulars: 100 μM NADH, 0.1 M phosphate pH 7.5, 0.1 M KCl, 24 °C.

Substrate in data set [2]: NC(=O)C1=CN([C@@H]2O[C@H](COP(=O)(O)OP(=O)(O)OC[C@H]3O[C@@H](n4cnc5c(N)ncnc54)[C@H](O)[C@@H]3O)[C@@H](O)[C@H]2O)C=CC1
The data set can be described thus: purified protein. Particulars: 150 μM oxaloacetate, 0.1 M phosphate pH 7.5, 0.1 M KCl, 24 °C.

B1: recombinant MDH-2 (Caenorhabditis elegans) (protein)
chain: SQAPKVALLGAAGGIGQPLGLLLKQDPLVAHLALYDVVNTPGVAADLSHIDSNAKVTAHTGPKELYAAVENADVIVIPAGVPRKPGMTRDDLFNTNAGIVRDLAAVIAKASPKALIAIITNPVNSTVPIASEVLKKAGVYDPKRVFGVTTLDVVRSQAFVSELKGHDASKTVVPVVGGHAGITIIPLLSQVKPSTKFSEEEISKLTPRIQDAGTEVVNAKAGAGSATLSMALAGARFANALVRGIKGEKNVQCAYVASDAVKGVEYFSTPVELGPNGVEKILGVGKVSAYEQKLIDASVPELNKNIAKGVAFVKGN
As for B1, the Km (commonly the concentration of substrate that gives half-maximal velocity) in “purified protein [1]” came out at 52 ± 4 µM.

B2: endogenous MDH-2 (Caenorhabditis elegans) (protein)
chain: SQAPKVALLGAAGGIGQPLGLLLKQDPLVAHLALYDVVNTPGVAADLSHIDSNAKVTAHTGPKELYAAVENADVIVIPAGVPRKPGMTRDDLFNTNAGIVRDLAAVIAKASPKALIAIITNPVNSTVPIASEVLKKAGVYDPKRVFGVTTLDVVRSQAFVSELKGHDASKTVVPVVGGHAGITIIPLLSQVKPSTKFSEEEISKLTPRIQDAGTEVVNAKAGAGSATLSMALAGARFANALVRGIKGEKNVQCAYVASDAVKGVEYFSTPVELGPNGVEKILGVGKVSAYEQKLIDASVPELNKNIAKGVAFVKGN
In the case of B2, the Km in “purified protein [1]” worked out at 42 ± 2 µM.

B3: recombinant MDH-1 (Caenorhabditis elegans) (protein)
chain: MSAPLRVLVTGAAGQIGYSIVIRIADGTVFGKEQPVELVLLDVPQCSNILEGVVFELQDCALPTLFSVVAVTDEKSAFTGIDYAFLVGAMPRREGMERKDLLAANVKIFKSQGKALAEYAKPTTKVIVVGNPANTNAFIAAKYAAGKIPAKNFSAMTRLDHNRALAQLALKTGTTIGNVKNVIIWGNHSGTQFPDVTHATVNKNGTETDAYAAVGDNAFLQGPFIATVQKRGGVIIEKRKLSSAMSAAKAACDHIHDWHFGTKAGQFVSMAVPSDGSYGIPQGLIFSFPVTIEGGEWKIVQGLSFDDFAKGKIAATTKELEEERDDALKACDDANI
For the protein B3, the Km in “purified protein [1]” is 54 ± 4 µM; in “purified protein [2]”, 61 ± 6 µM.

B4: endogenous MDH-1 (Caenorhabditis elegans) (protein)
chain: MSAPLRVLVTGAAGQIGYSIVIRIADGTVFGKEQPVELVLLDVPQCSNILEGVVFELQDCALPTLFSVVAVTDEKSAFTGIDYAFLVGAMPRREGMERKDLLAANVKIFKSQGKALAEYAKPTTKVIVVGNPANTNAFIAAKYAAGKIPAKNFSAMTRLDHNRALAQLALKTGTTIGNVKNVIIWGNHSGTQFPDVTHATVNKNGTETDAYAAVGDNAFLQGPFIATVQKRGGVIIEKRKLSSAMSAAKAACDHIHDWHFGTKAGQFVSMAVPSDGSYGIPQGLIFSFPVTIEGGEWKIVQGLSFDDFAKGKIAATTKELEEERDDALKACDDANI
As to B4, the Km in “purified protein [1]” was found to be 50 ± 4 µM.
